{"source": "patent US7232805B2", "about": "“Cobalamin conjugates for anti-tumor therapy” (Inflabloc Pharmaceuticals, Inc., priority 2003, dated 2007)", "key": {"[1]": {"assay": "systemic toxicity / MTD of free doxorubicin versus conjugate on a molar basis (separate study)", "type": "in vivo, mice"}, "[2]": {"system": "normal murine lymph node cells", "assay": "CellTiter-Glo Luminescent Cell Viability Assay, normal murine lymph node cells", "type": "cell-based", "settings": "96 hours, FIG. 7", "from_the_text": "FIG. 7 is a chart depicting the results of an in vitro assay of the conjugate against normal murine lymph node cells. The assay employed is the CellTiter-Glo™ Luminescent Cell Viability Assay from Promega Corporation, which is recognized in the art as being predictive of the effect of a compound on cell viability. The assay is detailed in Example 8. The method described by Promega Corporation (Technical Bulletin No. 288) was followed with no exceptions.\nDoxorubicin and CobalaRubicin-200 stocks and stock solutions, prepared in 5% DMSO in water, were stored at −20° C. and protected from light. […]\n(§1) After 96 hours, the effects of doxorubicin and B12-S-doxorubicin on cell viability were determined using an assay from Promega. The CellTiter-Glo™ Luminescent Cell Viability Assay quantitates the ATP present in a culture, which correlates with metabolically active cells. Luminescence, which is dependent on ATP concentration, was measured for each individual well on a Wallac MicroBeta® JET Liquid Scintillation and Luminescence Counter. The average luminescence value of the three wells containing medium alone was subtracted from the raw data values to give corrected values. […] The three corrected values for wells dosed with the same concentration of compound were averaged and the standard deviation calculated. Percent cell viability was calculated by considering the untreated cells as 100% viable. […]"}, "HL-60 cells": {"system": "HL-60 cells", "assay": "CellTiter-Glo Luminescent Cell Viability Assay, HL-60 cells", "type": "cell-based, human", "settings": "HL-60, 96 hours, 100 μM down to 10 nM, FIG. 6c", "from_the_text": "(§2) FIGS. 6a-6d depict the results of in vitro assays of the conjugate against four cell lines. FIG. 6A is a chart depicting the results of the conjugate against MCF-7 cells, cells derived from a human breast cancer cell line. FIG. 6B is a chart depicting the results of the conjugate against SK-BR-3 cells, cells derived from a human breast adenocarcinoma cell line. FIG. 6C is a chart depicting the results of the conjugate against HL-60 cells, cells derived from a human promyelocytic leukemia cell line. FIG. 6D is a chart depicting the results of the conjugate against SK-N-MC cells, cells derived from a human brain neuroblastoma (neuroepithelioma) cell line. […]\nas §1, with “calculated.” for “calculated. Percent cell viability was calculated by considering the untreated cells as 100% viable.”"}, "[3]": {"assay": "maximum tolerated dose of the conjugate in nude mice (Example 10)", "type": "in vivo, Charles River nude (athymic) mice", "settings": "5 consecutive daily intravenous doses, FIG. 10", "protocol": "The following procedure was used to investigate the maximum tolerated dose of the vitamin B12-doxorubicin conjugate in Charles River nude (athymic) mice. Five groups of 5 mice each were weighed and then administered the first of 5 consecutive daily doses of intravenous conjugate; dose levels were 8, 16, 32, 48 and 54 mg/kg/day. Overall toxicity was assessed by weighing the mice twice weekly starting on Day 1 of dosing (the initial dose) and by frequent inspection for clinical signs and symptoms. The NCI definition of the MTD for cancer chemotherapy in mice was adopted for this study. The desirable MTD is that dose of drug mediating a maximum mean body weight loss of ≦10% and no toxic deaths. The upper limit of the MTD is that dose causing a mean 20% weight loss in the group, and one death per 10 animals. After dosing once a day for 5 consecutive days, animals were monitored for another 5 days to address recurrent and latent toxicities."}, "SK-BR-3 cells": {"system": "SK-BR-3 cells", "assay": "CellTiter-Glo Luminescent Cell Viability Assay, SK-BR-3 cells", "type": "cell-based, human", "settings": "SK-BR-3, 96 hours, 100 μM down to 10 nM, FIG. 6b", "from_the_text": "as §2\nas §1, with “calculated.” for “calculated. Percent cell viability was calculated by considering the untreated cells as 100% viable.”"}}, "data": [{"smiles": "COc1cccc2c1C(=O)c1c(O)c3c(c(O)c1C2=O)C[C@@](O)(C(=O)CO)C[C@@H]3O[C@H]1C[C@H](NC(=O)OCc2ccc(NC(=O)[C@H](CCCCN)NC(=O)[C@H](Cc3ccccc3)NC(=O)CCCCCNC(=O)OC[C@H]3O[C@H](n4cnc5cc(C)c(C)cc54)[C@H](O)[C@@H]3OP(=O)(O)O[C@H](C)CNC(=O)CC[C@@]3(C)C4=C(C)C5=NC(=CC6=NC(=C(C)C7=N[C@@](C)([C@H](N4)[C@@H]3CC(N)=O)[C@@](C)(CC(N)=O)[C@@H]7CCC(N)=O)[C@@](C)(CC(N)=O)[C@@H]6CCC(N)=O)C(C)(C)[C@@H]5CCC(N)=O)cc2)[C@H](O)[C@H](C)O1", "note": "[conjugate 13, B12-5′-OCONH(CH2)5CO-Phe-Lys-PABC-Dox]", "values": [{"measurement": "lethality at the same high molar dose", "setting": "[1]; free doxorubicin at the same high molar dose as the conjugate", "result": "not by the doxorubicin conjugate"}, {"measurement": "dose higher than that of free doxorubicin on a molar basis, still with less systemic toxicity", "setting": "[1]; molar basis", "result": "at least 2.3 time"}, {"measurement": "cell viability versus free doxorubicin", "setting": "[2]", "result": "as effective as doxorubicin but shows slightly less potency than doxorubicin"}, {"measurement": "cell viability versus free doxorubicin", "setting": "HL-60 cells", "result": "same effectiveness as doxorubicin and is slightly less potent than doxorubicin"}, {"measurement": "toxicity versus dose, as measured by percent mean body weight loss", "setting": "[3]", "result": "clear trend of increasing toxicity with increasing dose"}, {"measurement": "MTD", "setting": "[3]; mouse, in vivo, percent mean body weight loss, read-out: dose at which the conjugate was well tolerated (MTD study)", "result": "≤ 48", "unit": "mg/kg/day"}, {"measurement": "cell viability versus free doxorubicin", "setting": "SK-BR-3 cells", "result": "same effectiveness as doxorubicin and is slightly less potent than doxorubicin"}]}]}
